Assay results: patent US20140162945A1 (BEIJING HANMI PHARMACEUTICAL, published 2014)
Bridges are numbered along the chain shown (N, C = ends). Where no end group is shown, it is not given here. [ ]: non-standard residue; d: D form. The star is where a group is joined. Phe(4-NO2) = N[C@@H](Cc1ccc([N+](=O)[O-])cc1)C(=O)O; Phe(4-F) = N[C@@H](Cc1ccc(F)cc1)C(=O)O; Palmitoyl = CCCCCCCCCCCCCCCC(=O)*; Met(O) = CS(=O)CC[C@H](N)C(=O)O; Phg = N[C@H](C(=O)O)c1ccccc1; Nle = CCCC[C@H](N)C(=O)O; Aib = CC(C)(N)C(=O)O

How the values were obtained:
Test in all cases: cell-based or functional assay
human GLP-1 receptor [1] = target: T1, human GLP-1 receptor (human, UniProt P43220 24-463)
T1 sequence (P43220 24-463): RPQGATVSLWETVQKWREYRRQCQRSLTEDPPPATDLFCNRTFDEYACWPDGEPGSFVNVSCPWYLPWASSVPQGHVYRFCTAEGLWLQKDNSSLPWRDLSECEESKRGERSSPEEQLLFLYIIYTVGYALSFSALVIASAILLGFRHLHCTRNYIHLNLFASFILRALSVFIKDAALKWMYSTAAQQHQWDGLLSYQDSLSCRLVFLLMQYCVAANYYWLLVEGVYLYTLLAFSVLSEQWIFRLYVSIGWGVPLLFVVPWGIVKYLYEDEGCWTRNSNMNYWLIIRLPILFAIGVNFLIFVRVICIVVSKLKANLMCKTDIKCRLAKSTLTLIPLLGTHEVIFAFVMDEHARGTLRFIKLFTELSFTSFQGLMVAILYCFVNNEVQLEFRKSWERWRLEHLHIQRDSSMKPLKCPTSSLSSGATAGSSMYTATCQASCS

human GIP receptor [2] = target: T2, human GIP receptor (human, UniProt P48546 22-466)
T2 sequence (looked up): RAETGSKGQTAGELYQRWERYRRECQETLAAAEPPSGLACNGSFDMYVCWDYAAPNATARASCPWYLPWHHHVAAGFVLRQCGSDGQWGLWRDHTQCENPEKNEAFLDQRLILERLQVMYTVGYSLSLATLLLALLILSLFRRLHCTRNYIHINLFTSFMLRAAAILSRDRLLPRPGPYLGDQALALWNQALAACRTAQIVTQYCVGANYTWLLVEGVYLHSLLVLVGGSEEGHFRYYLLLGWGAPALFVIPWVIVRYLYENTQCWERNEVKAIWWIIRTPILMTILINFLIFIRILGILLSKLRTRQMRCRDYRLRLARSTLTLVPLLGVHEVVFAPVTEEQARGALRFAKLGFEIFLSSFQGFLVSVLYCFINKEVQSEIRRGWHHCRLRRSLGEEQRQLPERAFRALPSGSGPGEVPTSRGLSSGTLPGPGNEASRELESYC

human GLP-1 receptor [3] = target: T1, human GLP-1 receptor; remark: listed apart in the source
human GIP receptor [4] = target: T2, human GIP receptor; remark: listed apart in the source

## Y[Aib]EGTFTSDYSI[Phe(4-F)][Met(O)]EKIHQQDFVNWLLAQ-NH2 [Analog 004]
Human GLP-1 receptor [1]
  EC50, GLP-1 Receptor cAMP induction: 926 nM
Human GIP receptor [2]
  EC50, GIP Receptor cAMP induction: 14.6 nM

B1: Analog 006 (peptide)
peptide: Y[Aib]EGTFISDYSIA[Met(O)]EKIHQQDFVNWLLAQ-NH2
modifications: N-terminus assumed
SMILES: CC[C@H](C)[C@H](NC(=O)[C@H](CO)NC(=O)[C@H](Cc1ccc(O)cc1)NC(=O)[C@H](CC(=O)O)NC(=O)[C@H](CO)NC(=O)[C@@H](NC(=O)[C@H](Cc1ccccc1)NC(=O)[C@@H](NC(=O)CNC(=O)[C@H](CCC(=O)O)NC(=O)C(C)(C)NC(=O)[C@@H](N)Cc1ccc(O)cc1)[C@@H](C)O)[C@@H](C)CC)C(=O)N[C@@H](C)C(=O)N[C@@H](CCS(C)=O)C(=O)N[C@@H](CCC(=O)O)C(=O)N[C@@H](CCCCN)C(=O)N[C@H](C(=O)N[C@@H](Cc1c[nH]cn1)C(=O)N[C@@H](CCC(N)=O)C(=O)N[C@@H](CCC(N)=O)C(=O)N[C@@H](CC(=O)O)C(=O)N[C@@H](Cc1ccccc1)C(=O)N[C@H](C(=O)N[C@@H](CC(N)=O)C(=O)N[C@@H](Cc1c[nH]c2ccccc12)C(=O)N[C@@H](CC(C)C)C(=O)N[C@@H](CC(C)C)C(=O)N[C@@H](C)C(=O)N[C@@H](CCC(N)=O)C(N)=O)C(C)C)[C@@H](C)CC
Human GLP-1 receptor [1]
  EC50, GLP-1 Receptor cAMP induction: > 2000 nM
Human GIP receptor [2]
  EC50, GIP Receptor cAMP induction: 6.66 nM

## Y[Aib]EGTFTSDYSI[Phe(4-NO2)][Nle]EKIHQQDFVNWLLAQ-NH2 [Analog 008]
Human GLP-1 receptor [1]
  EC50, GLP-1 Receptor cAMP induction: 1580 nM
Human GIP receptor [2]
  EC50, GIP Receptor cAMP induction: 24.2 nM

## Y[Aib]EGTFTSDYSIY[Nle]EKEAQQDFVNWLLAQ-NH2 [Analog 020]
Human GLP-1 receptor [1]
  EC50, GLP-1 Receptor cAMP induction: 830 nM
Human GIP receptor [2]
  EC50, GIP Receptor cAMP induction: 0.27 nM
  Relative Potency, GIP Receptor: 51.8%

B2: Analog 075 (peptide)
peptide: Y[Aib]EGTFTSDYSIYMEKEAVREFIAWLVKGRRRRRR-NH2
modifications: N-terminus assumed
SMILES: CC[C@H](C)[C@H](NC(=O)[C@H](Cc1ccccc1)NC(=O)[C@H](CCC(=O)O)NC(=O)[C@H](CCCNC(=N)N)NC(=O)[C@@H](NC(=O)[C@H](C)NC(=O)[C@H](CCC(=O)O)NC(=O)[C@H](CCCCN)NC(=O)[C@H](CCC(=O)O)NC(=O)[C@H](CCSC)NC(=O)[C@H](Cc1ccc(O)cc1)NC(=O)[C@@H](NC(=O)[C@H](CO)NC(=O)[C@H](Cc1ccc(O)cc1)NC(=O)[C@H](CC(=O)O)NC(=O)[C@H](CO)NC(=O)[C@@H](NC(=O)[C@H](Cc1ccccc1)NC(=O)[C@@H](NC(=O)CNC(=O)[C@H](CCC(=O)O)NC(=O)C(C)(C)NC(=O)[C@@H](N)Cc1ccc(O)cc1)[C@@H](C)O)[C@@H](C)O)[C@@H](C)CC)C(C)C)C(=O)N[C@@H](C)C(=O)N[C@@H](Cc1c[nH]c2ccccc12)C(=O)N[C@@H](CC(C)C)C(=O)N[C@H](C(=O)N[C@@H](CCCCN)C(=O)NCC(=O)N[C@@H](CCCNC(=N)N)C(=O)N[C@@H](CCCNC(=N)N)C(=O)N[C@@H](CCCNC(=N)N)C(=O)N[C@@H](CCCNC(=N)N)C(=O)N[C@@H](CCCNC(=N)N)C(=O)N[C@@H](CCCNC(=N)N)C(N)=O)C(C)C
Human GLP-1 receptor [1]
  EC50, GLP-1 Receptor cAMP induction: 1.41 nM
  Relative Potency, GLP-1 Receptor: 77.7%
Human GIP receptor [2]
  EC50, GIP Receptor cAMP induction: 1.45 nM
  Relative Potency, GIP Receptor: 8.3%

## Y[Aib]EGTFTSDYSI[Phe(4-NO2)]MEKIHQQDFVNWLLAQ-NH2 [Analog 016]
Human GLP-1 receptor [1]
  EC50, GLP-1 Receptor cAMP induction: 1670 nM
Human GIP receptor [2]
  EC50, GIP Receptor cAMP induction: 18.3 nM

## Y[Aib]EGTFTSDYSIYMEKIHQQDFVNWLLAQ-NH2 [Analog 003]
Human GLP-1 receptor [1]
  EC50, GLP-1 Receptor cAMP induction: 483 nM
Human GIP receptor [2]
  EC50, GIP Receptor cAMP induction: 0.18 nM
  Relative Potency, GIP Receptor: 77.7%

## Y[Aib]EGTFTSDYSIF[Met(O)]EKIHQQDFVNWLLAQ-NH2 [Analog 007]
Human GLP-1 receptor [1]
  EC50, GLP-1 Receptor cAMP induction: 836 nM
Human GIP receptor [2]
  EC50, GIP Receptor cAMP induction: 19 nM

## Y[Aib]EGTFTSDYSIF[Nle]EKIHQQDFVNWLLAQ-NH2 [Analog 011]
Human GLP-1 receptor [1]
  EC50, GLP-1 Receptor cAMP induction: 1480 nM
Human GIP receptor [2]
  EC50, GIP Receptor cAMP induction: 693 nM

## Y[Aib]EGTFTSDYSI[Phg][Nle]EKIHQQDFVNWLLAQ-NH2 [Analog 009]
Human GLP-1 receptor [1]
  EC50, GLP-1 Receptor cAMP induction: > 2000 nM
Human GIP receptor [2]
  EC50, GIP Receptor cAMP induction: 22.2 nM

## Y[Aib]EGTFTSDYSI[Phe(4-NO2)][Met(O)]EKIHQQDFVNWLLAQ-NH2 [Analog 005]
Human GLP-1 receptor [1]
  EC50, GLP-1 Receptor cAMP induction: > 2000 nM
Human GIP receptor [2]
  EC50, GIP Receptor cAMP induction: 76.5 nM

## Y[Aib]EGTFTSDYSIAMEKIHQQDFVNWLLAQ-NH2 [Analog 002]
Human GLP-1 receptor [1]
  EC50, GLP-1 Receptor cAMP induction: 995 nM
Human GIP receptor [2]
  EC50, GIP Receptor cAMP induction: 11.1 nM

B3: Analog 023 (peptide)
peptide: Y[Aib]EGTFTSDYSIYMEKEAVREFIAWLVKG-NH2
modifications: N-terminus assumed
SMILES: CC[C@H](C)[C@H](NC(=O)[C@H](Cc1ccccc1)NC(=O)[C@H](CCC(=O)O)NC(=O)[C@H](CCCNC(=N)N)NC(=O)[C@@H](NC(=O)[C@H](C)NC(=O)[C@H](CCC(=O)O)NC(=O)[C@H](CCCCN)NC(=O)[C@H](CCC(=O)O)NC(=O)[C@H](CCSC)NC(=O)[C@H](Cc1ccc(O)cc1)NC(=O)[C@@H](NC(=O)[C@H](CO)NC(=O)[C@H](Cc1ccc(O)cc1)NC(=O)[C@H](CC(=O)O)NC(=O)[C@H](CO)NC(=O)[C@@H](NC(=O)[C@H](Cc1ccccc1)NC(=O)[C@@H](NC(=O)CNC(=O)[C@H](CCC(=O)O)NC(=O)C(C)(C)NC(=O)[C@@H](N)Cc1ccc(O)cc1)[C@@H](C)O)[C@@H](C)O)[C@@H](C)CC)C(C)C)C(=O)N[C@@H](C)C(=O)N[C@@H](Cc1c[nH]c2ccccc12)C(=O)N[C@@H](CC(C)C)C(=O)N[C@H](C(=O)N[C@@H](CCCCN)C(=O)NCC(N)=O)C(C)C
Human GLP-1 receptor [3]
  EC50, GLP-1R cAMP induction: 1.28 nM
Human GIP receptor [4]
  EC50, GIPR cAMP induction: 0.088 nM
Human GLP-1 receptor [1]
  EC50, GLP-1 Receptor cAMP induction: 1.28 nM
  Relative Potency, GLP-1 Receptor: 75%
Human GIP receptor [2]
  EC50, GIP Receptor cAMP induction: 0.088 nM
  Relative Potency, GIP Receptor: 107%

## Y[Aib]EGTFTSDYSIY[Nle]EKIHQQDFVNWLVRQ-NH2 [Analog 021]
Human GLP-1 receptor [1]
  EC50, GLP-1 Receptor cAMP induction: 217 nM
Human GIP receptor [2]
  EC50, GIP Receptor cAMP induction: 2.3 nM
  Relative Potency, GIP Receptor: 21.7%

## Y[Aib]EGTFISDYSIA[Nle]EKIHQQDFVNWLLAQ-NH2 [Analog 010]
Human GLP-1 receptor [1]
  EC50, GLP-1 Receptor cAMP induction: > 2000 nM
Human GIP receptor [2]
  EC50, GIP Receptor cAMP induction: 11.5 nM

B4: Analog 067 (peptide)
peptide: Y[Aib]EGTFTSDYSIYMEKEAVK(Palmitoyl)EFIAWLVKG-NH2
modifications: N-terminus assumed
SMILES: CCCCCCCCCCCCCCCC(=O)NCCCC[C@H](NC(=O)[C@@H](NC(=O)[C@H](C)NC(=O)[C@H](CCC(=O)O)NC(=O)[C@H](CCCCN)NC(=O)[C@H](CCC(=O)O)NC(=O)[C@H](CCSC)NC(=O)[C@H](Cc1ccc(O)cc1)NC(=O)[C@@H](NC(=O)[C@H](CO)NC(=O)[C@H](Cc1ccc(O)cc1)NC(=O)[C@H](CC(=O)O)NC(=O)[C@H](CO)NC(=O)[C@@H](NC(=O)[C@H](Cc1ccccc1)NC(=O)[C@@H](NC(=O)CNC(=O)[C@H](CCC(=O)O)NC(=O)C(C)(C)NC(=O)[C@@H](N)Cc1ccc(O)cc1)[C@@H](C)O)[C@@H](C)O)[C@@H](C)CC)C(C)C)C(=O)N[C@@H](CCC(=O)O)C(=O)N[C@@H](Cc1ccccc1)C(=O)N[C@H](C(=O)N[C@@H](C)C(=O)N[C@@H](Cc1c[nH]c2ccccc12)C(=O)N[C@@H](CC(C)C)C(=O)N[C@H](C(=O)N[C@@H](CCCCN)C(=O)NCC(N)=O)C(C)C)[C@@H](C)CC
Human GLP-1 receptor [1]
  EC50, GLP-1 Receptor cAMP induction: 7.87 nM
  Relative Potency, GLP-1 Receptor: 13.9%
Human GIP receptor [2]
  EC50, GIP Receptor cAMP induction: 3.7 nM
  Relative Potency, GIP Receptor: 4.6%

B5: Analog 084 (peptide)
peptide: Y[Aib]EGTFTSDYSEYMEKEAVREFIAWLVKGK(Palmitoyl)-NH2
modifications: lactam 12-16; N-terminus assumed
SMILES: CCCCCCCCCCCCCCCC(=O)NCCCC[C@H](NC(=O)CNC(=O)[C@H](CCCCN)NC(=O)[C@@H](NC(=O)[C@H](CC(C)C)NC(=O)[C@H](Cc1c[nH]c2ccccc12)NC(=O)[C@H](C)NC(=O)[C@@H](NC(=O)[C@H](Cc1ccccc1)NC(=O)[C@H](CCC(=O)O)NC(=O)[C@H](CCCNC(=N)N)NC(=O)[C@@H](NC(=O)[C@H](C)NC(=O)[C@H](CCC(=O)O)NC(=O)[C@@H]1CCCCNC(=O)CC[C@H](NC(=O)[C@H](CO)NC(=O)[C@H](Cc2ccc(O)cc2)NC(=O)[C@H](CC(=O)O)NC(=O)[C@H](CO)NC(=O)[C@@H](NC(=O)[C@H](Cc2ccccc2)NC(=O)[C@@H](NC(=O)CNC(=O)[C@H](CCC(=O)O)NC(=O)C(C)(C)NC(=O)[C@@H](N)Cc2ccc(O)cc2)[C@@H](C)O)[C@@H](C)O)C(=O)N[C@@H](Cc2ccc(O)cc2)C(=O)N[C@@H](CCSC)C(=O)N[C@@H](CCC(=O)O)C(=O)N1)C(C)C)[C@@H](C)CC)C(C)C)C(N)=O
Human GLP-1 receptor [1]
  EC50, GLP-1 Receptor cAMP induction: 4.8 nM
  Relative Potency, GLP-1 Receptor: 22.2%
Human GIP receptor [2]
  EC50, GIP Receptor cAMP induction: 1.34 nM
  Relative Potency, GIP Receptor: 8.8%
